Test results reported in patent US20220204623A1 (BIO THERA SOLUTIONS, published 2022).

B1: CL1 VH (SEQ ID NO: 7) / CL1 VL (SEQ ID NO: 8), scFv (scFv, part only; not given: linker, domain order, tag, V domains shown, not shown: another chain or arm of the molecule; small tags and cut ends)
VH: QVQLVQSGVEVKKPGASVKVSCKASGYTFTNYYMYWVRQAPGQGLEWMGGINPSNGGTNFNEKFKNRVTLTTDSSTTTAYMELKSLQFDDTAVYYCAARDYRLDMGFEFWGQGTTVTVSS
VL: EIVLTQSPATLSLSPGERATLSCRASKGVSTSGYSYLHWYQQKPGQAPRLLIYLASYLESGVPARFSGSGSGTDFTLTISSLEPEDFAVYYCQHAYDLPLTFGGGTKVEIK
B2: CL1 VH (SEQ ID NO: 7) / CL5 VL (SEQ ID NO: 10), scFv (scFv, part only; not given: linker, domain order, tag, V domains shown, not shown: another chain or arm of the molecule; small tags and cut ends)
VH: QVQLVQSGVEVKKPGASVKVSCKASGYTFTNYYMYWVRQAPGQGLEWMGGINPSNGGTNFNEKFKNRVTLTTDSSTTTAYMELKSLQFDDTAVYYCAARDYRLDMGFEFWGQGTTVTVSS
VL: EIVLTQSPATLSLSPGERATLSCRASKGVSTSGYSYLHWYQQKPGQAPRLLIYLASYLESGVPARFSGSGSGTDFTLTISSLEPEDFAVYYCQHSYDLPLTFGGGTKVEIK
B3: CL1 VH (SEQ ID NO: 7) / CL5 VL (SEQ ID NO: 10), IgG4 (antibody, V domains shown)
VH: QVQLVQSGVEVKKPGASVKVSCKASGYTFTNYYMYWVRQAPGQGLEWMGGINPSNGGTNFNEKFKNRVTLTTDSSTTTAYMELKSLQFDDTAVYYCAARDYRLDMGFEFWGQGTTVTVSS
VL: EIVLTQSPATLSLSPGERATLSCRASKGVSTSGYSYLHWYQQKPGQAPRLLIYLASYLESGVPARFSGSGSGTDFTLTISSLEPEDFAVYYCQHSYDLPLTFGGGTKVEIK
notes: Form IgG4
B4: CL1 VH (SEQ ID NO: 7) / CL7 VL (SEQ ID NO: 40), scFv (scFv, part only; not given: linker, domain order, tag, V domains shown, not shown: another chain or arm of the molecule; small tags and cut ends)
VH: QVQLVQSGVEVKKPGASVKVSCKASGYTFTNYYMYWVRQAPGQGLEWMGGINPSNGGTNFNEKFKNRVTLTTDSSTTTAYMELKSLQFDDTAVYYCAARDYRLDMGFEFWGQGTTVTVSS
VL: EIVLTQSPATLSLSPGERATLSCRASKGVSTSGYSYLHWYQQKPGQAPRLLIYLASYLESGVPARFSGSGSGTDFTLTISSLEPEDFAVYYCQHSYSFPLTFGGGTKVEIK
B5: antibody CL1 (antibody, human IgG4 S228P, kappa, V domains shown)
VH: QVQLVQSGVEVKKPGASVKVSCKASGYTFTNYYMYWVRQAPGQGLEWMGGINPSNGGTNFNEKFKNRVTLTTDSSTTTAYMELKSLQFDDTAVYYCAARDYRLDMGFEFWGQGTTVTVSS
VL: EIVLTQSPATLSLSPGERATLSCRASKGVSTSGYSYLHWYQQKPGQAPRLLIYLASYLESGVPARFSGSGSGTDFTLTISSLEPEDFAVYYCQHAYDLPLTFGGGTKVEIKR
notes: also called anti-hPD-1 antibody CL1; CL1 VH / CL1 VL IgG4
B6: CL1 VH (SEQ ID NO: 7) / CL9 VL (SEQ ID NO: 12), scFv (scFv, part only; not given: linker, domain order, tag, V domains shown, not shown: another chain or arm of the molecule; small tags and cut ends)
VH: QVQLVQSGVEVKKPGASVKVSCKASGYTFTNYYMYWVRQAPGQGLEWMGGINPSNGGTNFNEKFKNRVTLTTDSSTTTAYMELKSLQFDDTAVYYCAARDYRLDMGFEFWGQGTTVTVSS
VL: EIVLTQSPATLSLSPGERATLSCRASKGVSTSGYSYLHWYQQKPGQAPRLLIYLASYLESGVPARFSGSGSGTDFTLTISSLEPEDFAVYYCQHSYGLPVTFGGGTKVEIK
B7: CL1 VH (SEQ ID NO: 7) / CL2 VL (SEQ ID NO: 38), scFv (scFv, part only; not given: linker, domain order, tag, V domains shown, not shown: another chain or arm of the molecule; small tags and cut ends)
VH: QVQLVQSGVEVKKPGASVKVSCKASGYTFTNYYMYWVRQAPGQGLEWMGGINPSNGGTNFNEKFKNRVTLTTDSSTTTAYMELKSLQFDDTAVYYCAARDYRLDMGFEFWGQGTTVTVSS
VL: EIVLTQSPATLSLSPGERATLSCRASKGVSTSGYSYLHWYQQKPGQAPRLLIYLASYLESGVPARFSGSGSGTDFTLTISSLEPEDFAVYYCQHSYGLPLTFGGGTKVEIK
B8: antibody CL9 (antibody, human IgG4, V domains shown)
VH: QVQLVQSGVEVKKPGASVKVSCKASGYTFTNYYMYWVRQAPGQGLEWMGGINPSNGGTNFNEKFKNRVTLTTDSSTTTAYMELKSLQFDDTAVYYCAARDYKFDMGFEFWGQGTTVTVSS
VL: EIVLTQSPATLSLSPGERATLSCRASKGVSTSGYSYLHWYQQKPGQAPRLLIYLASYLESGVPARFSGSGSGTDFTLTISSLEPEDFAVYYCQHSYGLPVTFGGGTKVEIK
B9: CL1 VH (SEQ ID NO: 7) / CL2 VL (SEQ ID NO: 38), IgG4 (antibody, V domains shown)
VH: QVQLVQSGVEVKKPGASVKVSCKASGYTFTNYYMYWVRQAPGQGLEWMGGINPSNGGTNFNEKFKNRVTLTTDSSTTTAYMELKSLQFDDTAVYYCAARDYRLDMGFEFWGQGTTVTVSS
VL: EIVLTQSPATLSLSPGERATLSCRASKGVSTSGYSYLHWYQQKPGQAPRLLIYLASYLESGVPARFSGSGSGTDFTLTISSLEPEDFAVYYCQHSYGLPLTFGGGTKVEIK
notes: Form IgG4
B10: antibody CL6 (antibody, human IgG4, V domains shown)
VH: QVQLVQSGVEVKKPGASVKVSCKASGYTFTNYYMYWVRQAPGQGLEWMGGINPSNGGTNFNEKFKNRVTLTTDSSTTTAYMELKSLQFDDTAVYYCAARDYRFDMGFEFWGQGTTVTVSS
VL: EIVLTQSPATLSLSPGERATLSCRASKGVSTSGYSYLHWYQQKPGQAPRLLIYLASYLESGVPARFSGSGSGTDFTLTISSLEPEDFAVYYCQHSYDLPLTFGGGTKVEIK
B11: antibody CL2 (antibody, human IgG4, V domains shown)
VH: QVQLVQSGVEVKKPGASVKVSCKASGYTFTNYYMYWVRQAPGQGLEWMGGINPSNGGTNFNEKFKNRVTLTTDSSTTTAYMELKSLQFDDTAVYYCAARDYKFDMGFEYWGQGTTVTVSS
VL: EIVLTQSPATLSLSPGERATLSCRASKGVSTSGYSYLHWYQQKPGQAPRLLIYLASYLESGVPARFSGSGSGTDFTLTISSLEPEDFAVYYCQHSYGLPLTFGGGTKVEIK
B12: antibody CL7 (antibody, human IgG4, V domains shown)
VH: QVQLVQSGVEVKKPGASVKVSCKASGYTFTNYYMYWVRQAPGQGLEWMGGINPSNGGTNFNEKFKNRVTLTTDSSTTTAYMELKSLQFDDTAVYYCAARDYRFDMGFEFWGQGTTVTVSS
VL: EIVLTQSPATLSLSPGERATLSCRASKGVSTSGYSYLHWYQQKPGQAPRLLIYLASYLESGVPARFSGSGSGTDFTLTISSLEPEDFAVYYCQHSYSFPLTFGGGTKVEIK
B13: CL1 VH (SEQ ID NO: 7) / CL9 VL (SEQ ID NO: 12), IgG4 (antibody, V domains shown)
VH: QVQLVQSGVEVKKPGASVKVSCKASGYTFTNYYMYWVRQAPGQGLEWMGGINPSNGGTNFNEKFKNRVTLTTDSSTTTAYMELKSLQFDDTAVYYCAARDYRLDMGFEFWGQGTTVTVSS
VL: EIVLTQSPATLSLSPGERATLSCRASKGVSTSGYSYLHWYQQKPGQAPRLLIYLASYLESGVPARFSGSGSGTDFTLTISSLEPEDFAVYYCQHSYGLPVTFGGGTKVEIK
notes: Form IgG4
B14: CL1 VH (SEQ ID NO: 7) / CL7 VL (SEQ ID NO: 40), IgG4 (antibody, V domains shown)
VH: QVQLVQSGVEVKKPGASVKVSCKASGYTFTNYYMYWVRQAPGQGLEWMGGINPSNGGTNFNEKFKNRVTLTTDSSTTTAYMELKSLQFDDTAVYYCAARDYRLDMGFEFWGQGTTVTVSS
VL: EIVLTQSPATLSLSPGERATLSCRASKGVSTSGYSYLHWYQQKPGQAPRLLIYLASYLESGVPARFSGSGSGTDFTLTISSLEPEDFAVYYCQHSYSFPLTFGGGTKVEIK
notes: Form IgG4
B15: antibody CL5 (antibody, human IgG4, V domains shown)
VH: QVQLVQSGVEVKKPGASVKVSCKASGYTFTNYYMYWVRQAPGQGLEWMGGINPSNGGTNFNEKFKNRVTLTTDSSTTTAYMELKSLQFDDTAVYYCAARDYRFDMGFEYWGQGTTVTVSS
VL: EIVLTQSPATLSLSPGERATLSCRASKGVSTSGYSYLHWYQQKPGQAPRLLIYLASYLESGVPARFSGSGSGTDFTLTISSLEPEDFAVYYCQHSYDLPLTFGGGTKVEIK

Columns and labels:
[1] = biological target: hPD-1 (Sino Biological Inc., Catalog No.: 10377-H03H-B) (human) (UniProt Q15116); assay: BLI (Octet) as in Example 4, biotinylated hPD-1 on streptavidin biosensor
Chain of hPD-1 (Sino Biological Inc., Catalog No.: 10377-H03H-B) (human) (Q15116 25-167): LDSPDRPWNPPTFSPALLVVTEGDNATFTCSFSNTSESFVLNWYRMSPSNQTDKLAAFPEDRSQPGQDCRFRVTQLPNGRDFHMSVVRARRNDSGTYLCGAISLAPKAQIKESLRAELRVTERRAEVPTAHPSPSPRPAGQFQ

[2] = biological target: T1, hPD-1 (Sino Biological Inc., Catalog No.: 10377-H03H-B) (human, UniProt Q15116 25-167); assay: as above
T1 construct: Bought protein; also called human PD-1; purified hPD-1
T1 sequence (Q15116 25-167): as above
Description: (§1) A streptavidin biosensor was pre-wetted by immersing in PBS in a well for 10 minutes, and then the biosensor was equilibrated with PBS for 2 minutes. The biosensor was immersed in the solution of 20 μg/mL biotinylated hPD-1 in PBS for 5 minutes to couple with biotinylated hPD-1, and then was equilibrated with PBS for 2 minutes. The biosensors were placed in wells containing antibody solutions of various concentrations (0.125 to 2 nM, SDS-PAGE purity >99%) to observe their binding to the anti-PD-1 antibody, and the binding was monitored and measured for 30 minutes. After the biosensor was transferred to PBS, dissociation was monitored and measured for 90 minutes. The observed binding and dissociation rates (kbinding and kdissociation) were fitted with a 1:1 binding global fit model containing all test concentrations, and the equilibrium binding constant KD was calculated.
The amino acid sequences of VL and VH regions of the related antibodies are shown in the sequence listing.

[3] = biological target: T1, hPD-1 (Sino Biological Inc., Catalog …); assay: ELISA, hPD-1 coated on the plate
Description: The binding of the antibodies to hPD-1 was determined by enzyme-linked immunosorbent assay (ELISA). hPD-1 was coated on a 96-well plate by incubation overnight at 4° C. After coating, the plate was washed 5 times with PBST. […] After the binding, the plate was washed 5 times with PBST. The resulting solution was incubated at room temperature in PBST that contained peroxidase (HRP)-labeled goat anti-mouse IgG solution diluted to 1/10000 for 1 hour, washed again, and developed with TMB.

[4] = biological target: T1, hPD-1 (Sino Biological Inc., Catalog …); assay: BLI (ForteBio Octet), biotinylated hPD-1 on streptavidin biosensor, antibody in solution, 1:1 global fit
Description: The assay was performed by coupling a hPD-1 fusion protein to a streptavidin biosensor using biotin.
as §1

[5] = biological target: T2, hPD-1 on hPD-1-expressing Jurkat cells (Promega, Catalog No.: J1252) (human, UniProt Q15116 25-288); assay: cell-based or functional assay
T2 sequence (Q15116 25-288): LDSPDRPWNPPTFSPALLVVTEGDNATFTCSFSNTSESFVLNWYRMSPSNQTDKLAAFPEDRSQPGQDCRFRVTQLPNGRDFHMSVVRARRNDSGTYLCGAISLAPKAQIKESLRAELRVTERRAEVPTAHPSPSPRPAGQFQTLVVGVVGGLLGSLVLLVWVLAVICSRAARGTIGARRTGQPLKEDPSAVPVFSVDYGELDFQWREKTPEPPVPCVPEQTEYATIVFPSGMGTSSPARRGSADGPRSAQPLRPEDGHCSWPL

[6] = biological target: T1, hPD-1 (Sino Biological Inc., Catalog …); assay: SPR (Biacore), antibody captured on protein A chip, PD-1 in solution 0.625-10 nM, 1:1 Langmuir fit
Description: A protein A chip was used for detection. […] Then the flow rate was adjusted to 30 μl/min, and PD-1 solutions of different concentrations (0.625 nM, 1.25 nM, 2.5 nM, 5 nM, and 10 nM) were fed in sequence, with a binding time of 180 s and a dissociation time of 1,200 s.

[7] = biological target: T2, hPD-1 on hPD-1-expressing Jurkat cells …; assay: flow cytometry, blocking of 1 ug/mL unlabeled hPD-L1 binding to hPD-1-expressing Jurkat cells
Description: The blocking of ligand binding was assayed by flow cytometry. […] The mixture was placed on ice for 30 minutes, washed 3 times with FACS buffer (PBS containing 0.3% BSA), and incubated with PE-labeled goat anti-human Fc on ice for another 30 minutes. Cells were washed three more times with FACS buffer and analyzed by flow cytometry. Data were analyzed using nonlinear regression of Prism software, and IC₅₀ values were calculated.

Binder | Kd [1] [nM] | Kd [2] [nM] | EC50 [3] [nM] | also measured
B1 | 0.082 |  |  | 
B2 | 0.143 |  |  | 
B3 |  | 0.076 |  | 
B4 | 0.149 |  |  | 
B5 |  | 0.0207 | 0.208 | Kd [4]: 0.0207 nM; koff [4]: 4.11e-05 s⁻¹; kon [4]: 1.98e+06 M⁻¹ s⁻¹; Assay for the functional activity EC50 [5]: 0.269 µg/mL; Kd [6]: 0.606 nM; koff [6]: 0.0005 s⁻¹; kon [6]: 825000 M⁻¹ s⁻¹; IC50 [7]: 0.77 nM
B6 | 0.518 |  |  | 
B7 | 0.447 |  |  | 
B8 |  |  | 0.594 | 
B9 |  | 0.189 |  | 
B10 |  |  | 1.34 | 
B11 |  |  | 0.451 | 
B12 |  |  | 0.346 | 
B13 |  | 0.229 |  | 
B14 |  | 0.061 |  | 
B15 |  |  | 0.399 | Assay for the functional activity EC50 [5]: 0.932 µg/mL
